In US20260008856A1, “METHODS OF TREATING DISEASE USING ANTI-IL1RAP ANTIBODIES AND ANTIBODY DRUG CONJUGATES” (Bluefin Biomedicine, Inc., priority 2022, published 2026):

How the values were obtained:
H69 = assay: Flow cytometry binding to endogenous cell line H69; format: cell-based; design: key: (−): No binding; (+): Weak binding; (++): Moderate binding; (+++): Strong binding; conditions: primary antibody 1 ug/ml
Method: (§1) Staining for flow cytometry was performed in 1× cold PBS with 0.5% BSA. Primary antibodies (1 ug/ml) were incubated with live cells on ice for 30 minutes, after a brief wash, cells were incubated with Alexa Fluro® 488-conjugated anti-human IgG secondary antibody @1:1000 (709-546-149, Jackson ImmunoResearch). Acquisition of the data was performed on a MACSQuant® Flow Cytometers (Miltenyi Biotec) and analyzed with FlowJo software.

EOL-1 = assay: Flow cytometry binding to endogenous cell line EOL-1; format: cell-based, human; design: key to binding to EOL-1 by flow cytometry: (−): No binding; (+): Weak binding; (++): Moderate binding; (+++): Strong binding; conditions: for binding to EOL-1 by flow cytometry: primary antibody 1 ug/ml
Method: as §1
(§2) Over 1,000 hits were identified that bind strongly to CHO-human IL1RAP, but not parental CHO cells. 68 clones were selected for molecular cloning. Based on unique CDR3 sequences from the heavy chain variable domain, 35 antibodies from 13 families were confirmed by binding in IL1RAP positive cell lines EOL1 and Karpas 299 (see Table 8) by flow cytometry (MACSQuant® www.miltenybiotec.com).

IL-1α signaling = assay: IL-1 signaling reporter cell assay, IL-1α; format: cell-based; conditions: serial dilution of antibody
Method: (§3) HEK-Blue IL-1β cells (Invivogen, CA) were harvested and plated in technical duplicates at a density of 50,000 cells per well in a 96-well plate. IL1RAP antibodies, or a corresponding human IgG1 control antibody was added to the wells in a concentration range of […]. After incubating cells with antibodies for 30 minutes, IL-1β was added to a final concentration of 0.5 ng/ml, and the plate was incubated overnight. To examine whether any of the antibodies were able to induce IL-1R activation in the absence of IL-1β, samples were incubated with 10 μg/mL antibody without addition of the ligand. The following day, substrate was added to the supernatants, and samples were analyzed for absorbance at 620 nm.
In addition, serial dilution of IL1RAP antibodies was performed to determine EC50 against IL-1β and IL-1α (FIGS. 6B and 6C). Many of these antibodies, including 37E10_15B5 and 44E5_15C5 can block IL-1β and IL-1α signaling with subnanomolar EC50.

recombinant human IL1RAP = biological target: T1, recombinant human IL1RAP (Homo sapiens, UniProt Q9NPH3); assay: Binding competition binning on Octet; conditions: Protein A biosensors
T1 construct: MBP-IL1RAP(S21-T367)-; 8xHis (C); made in house; host or cells: CHO (ExpiCHO transient expression)
Method: Binding Competition binning: Binding competition among different antibodies was determined using a real-time, interferometry assay on an Octet Red™ instrument with Protein A-conjugated biosensors. To assess whether two antibodies competed for binding to a recombinant IL1RAP protein, the assay was performed as follows. Protein A biosensors were first submerged into wells containing 10 ug/mL of individual monoclonal antibodies for 5 minutes. Following the capture step, the biosensors were dipped briefly (15 seconds) into buffer and then any unoccupied sites on the biosensor were saturated by submerging them for 5 minutes into wells containing 100 ug/mL of an irrelevant monoclonal antibody. The Octet™ biosensors were then dipped briefly (15 seconds) in buffer before immersion for 1 minute into wells containing recombinant IL1RAP. The biosensors were dipped briefly (15 seconds) in buffer before immersion for 1 minute into wells containing a second recombinant antibody.
For the control case where the second antibody was the same as the first, there was no increase in signal, because there was no additional binding to the recombinant target.
For the control case where buffer was used instead of the first antibody, no recombinant target bound the non-quenching antibody on the biosensor and no second antibody bound the biosensor.
Selected antibodies were evaluated in pairs for their ability to simultaneously bind recombinant human IL1RAP. The analysis was performed by Octet™ loaded with Protein A Biosensors. A total of five different bins were determined as follows.

Karpas 299 = assay: Flow cytometry binding to endogenous cell line Karpas 299; format: cell-based, human; design: key to binding to Karpas 299 by flow cytometry: (−): No binding; (+): Weak binding; (++): Moderate binding; (+++): Strong binding; conditions: for binding to Karpas 299 by flow cytometry: primary antibody 1 ug/ml
Method: as §1, §2

DMS79 = assay: Flow cytometry binding to endogenous cell line DMS79; format: cell-based; design: key to binding to DMS79 by flow cytometry: (−): No binding; (+): Weak binding; (++): Moderate binding; (+++): Strong binding
Method: as §1

IL-33 signaling = IL-33 signaling reporter cell assay (HEK-Blue IL-33 cells); format: cell-based; conditions: antibody 1-10 μg/ml, IL-33 0.5 ng/ml
Method: FIGS. 7A and 7B show blockage of IL-33 signaling by anti-IL1RAP antibodies. HEK-Blue IL-33 cells (Invivogen, CA) were harvested and plated in technical duplicates at a density of 50,000 cells per well in a 96-well plate. Antibodies, or a corresponding human IgG1 control antibody, was added to the wells in a serial dilution starting at 10 μg/ml (FIG. 7A), or a concentration of 1 and 10 μg/ml (FIG. 7B). After incubating cells with antibodies for 30 minutes, IL-33 was added to a final concentration of 0.5 ng/ml, and the plate was incubated overnight. 24 hours later, substrate was added to the supernatants, and samples were analyzed for absorbance at 620 nm. CBIgG1 (anti-hen egg lysozyme antibody, CrownBio™) was included as a negative control.
as §3, with “IL-33” for “IL-1β”, “plate.” for “plate. IL1RAP”, “ST2” for “IL-1R”, “IL-33,” for “IL-1β,”

IL-1β signaling = assay: IL-1 signaling reporter cell assay (HEK-Blue IL-1β cells), IL-1β; format: cell-based; conditions: for inhibition of IL1R1 / IL-1 signaling: HEK-Blue IL-1β cells, antibody 1-10 pg/ml, IL-1β 0.5 ng/ml
Method: as §3

MOLT3 = assay: Flow cytometry binding to endogenous cell line MOLT3; format: cell-based; design: key: (−): No binding; (+): Weak binding; (++): Moderate binding; (+++): Strong binding; conditions: primary antibody 1 ug/ml
Method: as §1

mouse IL1RAP = biological target: T2, mouse IL1RAP (Mus musculus, UniProt Q61730); assay: Flow cytometry binding to 293 cells expressing mouse IL1RAP; format: cell-based; conditions: 1 ug/ml
T2 construct: Met1-Val570; host or cells: HEK-293T
Method: (§4) 293T cell line was purchased from American Type Culture Collection (ATCC). 293T cells expressing human, Macaca fascicularis, rat, and mouse IL1RAP were maintained in DMEM medium (Invitrogen) with 10% fetal bovine serum (FBS) (Sigma) in the presence of 2 ug/ml puromycin (Invitrogen).
as §1

rat IL1RAP = biological target: T3, rat IL1RAP (Rattus norvegicus, UniProt Q63621); assay: Flow cytometry binding to 293 cells expressing rat IL1RAP; format: cell-based; conditions: 1 ug/ml
T3 construct: Met1-Val570; host or cells: HEK-293T
Method: as §4, §1

T3 sequence (Q63621 21-570): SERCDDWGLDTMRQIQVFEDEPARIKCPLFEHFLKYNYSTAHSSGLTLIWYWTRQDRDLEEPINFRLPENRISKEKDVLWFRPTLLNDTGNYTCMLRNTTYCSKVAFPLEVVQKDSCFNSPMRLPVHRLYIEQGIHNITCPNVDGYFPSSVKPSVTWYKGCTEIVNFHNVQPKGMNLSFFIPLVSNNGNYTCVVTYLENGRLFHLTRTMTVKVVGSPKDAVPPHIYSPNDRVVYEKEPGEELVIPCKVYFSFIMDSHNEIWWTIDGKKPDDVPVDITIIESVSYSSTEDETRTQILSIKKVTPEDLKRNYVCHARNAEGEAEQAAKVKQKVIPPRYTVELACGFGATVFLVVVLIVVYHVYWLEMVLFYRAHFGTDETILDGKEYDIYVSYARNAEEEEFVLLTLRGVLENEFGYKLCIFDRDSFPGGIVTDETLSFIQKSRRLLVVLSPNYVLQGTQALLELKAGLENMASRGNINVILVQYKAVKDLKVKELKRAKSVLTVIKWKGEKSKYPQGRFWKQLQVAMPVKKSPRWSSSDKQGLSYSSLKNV
T2 sequence (Q61730 21-570): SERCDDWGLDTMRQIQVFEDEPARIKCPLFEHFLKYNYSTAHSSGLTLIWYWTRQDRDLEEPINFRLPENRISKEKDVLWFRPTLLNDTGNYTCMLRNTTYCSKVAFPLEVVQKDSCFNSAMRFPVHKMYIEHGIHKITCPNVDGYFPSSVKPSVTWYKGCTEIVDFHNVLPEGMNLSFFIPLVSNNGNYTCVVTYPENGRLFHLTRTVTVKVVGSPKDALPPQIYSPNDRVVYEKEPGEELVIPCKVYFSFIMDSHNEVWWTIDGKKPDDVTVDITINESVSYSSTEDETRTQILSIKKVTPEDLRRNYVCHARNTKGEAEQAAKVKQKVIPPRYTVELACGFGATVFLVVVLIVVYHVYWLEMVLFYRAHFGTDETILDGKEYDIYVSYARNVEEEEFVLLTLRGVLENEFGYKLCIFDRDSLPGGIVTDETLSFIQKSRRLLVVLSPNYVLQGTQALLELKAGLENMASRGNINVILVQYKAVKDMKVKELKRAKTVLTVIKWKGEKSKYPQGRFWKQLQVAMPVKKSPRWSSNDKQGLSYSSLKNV

EC50 against IL-1α (IL-1α signaling) | competition for binding, bin (2) (recombinant human IL1RAP) | EC50 against IL-1β (IL-1β signaling; serial dilution of antibody, reporter assay) | competition for binding, bin (1) (recombinant human IL1RAP) | binding to 293 cells expressing mouse IL1RAP (mouse IL1RAP) | binding to 293 cells expressing rat IL1RAP (rat IL1RAP) | Molecule | binding to H69 by flow cytometry (H69) | binding to IL1RAP positive cell line EOL1 (EOL-1; flow cytometry, FIG. 2) | binding to EOL-1 by flow cytometry (EOL-1) | binding to IL1RAP positive cell line Karpas 299 (Karpas 299; flow cytometry, FIG. 2) | binding to IL1RAP negative cell line DMS79 (DMS79; flow cytometry, FIG. 2) | inhibition of IL-33 signaling (IL-33 signaling) | inhibition of IL1R1 / IL-1 signaling (IL-1β signaling) | binding to MOLT3 by flow cytometry (MOLT3) | binding to Karpas 299 by flow cytometry (Karpas 299) | binding to DMS79 by flow cytometry (DMS79; primary antibody 1 ug/ml)
subnanomolar | competed with each other | subnanomolar | – | – | – | 44E5_15C5: human anti-IL1RAP antibody, VH SEQ ID NO: 71, VL SEQ ID NO: 73 (antibody, V domains shown) VH: QVQLVESGGGVVQPGRSLRLSCAASGFTFRSHGMHWVRQAPGKGLEWVAVIWYDGSSDYYADSVKGRFTISRDNSKNTLFLQMNSLSAEDTAVYYCARENVYGSGWFFDYWGQGTLVTVSS VL: EIVMTQSPATLSVSPGERASLSCRASQSVGSNLAWYQQKPGQAPRLLIFGASTRATGIPARFSGSRSGTEFTLTISSLQSEDFALYYCQQYNNWPPWTFGQGTKLEIK | (−) | specific binding | (+++) | specific binding | lack of binding | partially inhibit | potent inhibition | – | – | –
– | – | – | competed with each other | bind weakly | – | 39G1_21C4: human anti-IL1RAP antibody, VH SEQ ID NO: 56, VL SEQ ID NO: 60 (antibody, V domains shown) VH: QVQLQESGPGLVKPSETLSLTCAVSGYSASGVYYWGWIRQPPGKGLEWIGNIYHSGSTYYNPSLERRVSISLDTSKNHFSLRLNFVTAADTAVYYCARDRFDAFDIWGQGTMVTVSS VL: EIVMTQSPATLSVSPGERATLSCRASQSINNILAWYQQKPGQAPRLLIYGASTRATGIPARFSGSGSGTEFTLTISSLQSEDFAVYYCQQYNNWPLTFGGGTKVEIK | – | – | (+++) | – | – | do not inhibit | do not inhibit | (+) | – | –
– | – | – | competed with each other | bind weakly | bind | 24G3_17C5: human anti-IL1RAP antibody, VH SEQ ID NO: 90, VL SEQ ID NO: 93 (antibody, V domains shown) VH: EVQLLESGGGLVQRGGSLRLSCAASGFTFSSYAMSWVRQAPGKGLEWVSSISGSGDSTNYADSVKGRFTISRDNSKNTLHLQMNSLRAEDTAVYYCVRDYYYGMDVWGHGTTVTVSS VL: EIVLTQSPATLSLSPGERATLSCRASQSVNSYLAWYQQKPGQAPRLLIYDASNRATGIPARFSGSGSGTDFTLTISSLEPEDFAVYYCQQRSYWPITFGQGTRLEIK | – | – | (++) | – | – | – | – | – | (++) | –
– | – | – | competed with each other | – | bind | 34C11_21B2: human anti-IL1RAP antibody, VH SEQ ID NO: 40, VL SEQ ID NO: 44 (antibody, V domains shown) VH: EVQVVESGGGLVQPGGSLRLSCAASGFTFRSYWMSWVRQAPGKGLEWVANIKQDGSERHYVDSVKGRFTISRDNAKTSLYLQMSSLRAEDTAVYYCAREGYFGSGYFDYWGQGTLVTVSS VL: DIQMTQSPSTLSASVGDRVIITCRASQSISRGLAWYQQKPGKAPKLLIYKASNLESGVPSRFSGSGSGTEFTLTISSLQPDDFAAYYCQQYSYYSHTFGQGTKLEIK | – | – | (+++) | – | – | – | – | (+) | (+++) | –
– | – | – | – | – | – | 38G11_28A2: human anti-IL1RAP antibody, VH SEQ ID NO: 151, VL SEQ ID NO: 154 (antibody, V domains shown) VH: EVQLVESGGGLVQPGGSLRLSCAASGFTFSSYWMSWVRQAPGKGLEWVANIKQDGSEKHYVDSVKGRFTISRDNAKNSLYLQMNSLRAEDTAVYYCAREGYFGSGYFDYWGQGTLVTVSS VL: DIQLTQSPSFLSASVGDRVTITCRASQGISSYLAWYQQKPGKAPKLLIYAASTLQSGVPSRFSGSGSGTEFTLTISSLQPEDFATYYCQQYSFYSHTFGQGTKLEIK | – | – | (++) | – | – | – | – | – | (++) | (−)
